According to patent publication US20130121989:
Changes are numbered by the printed parent chain.

T1: Tetrahymena α-tubulin with non-acetylated K40, from the MEC17-KO strain (as axonemes or as purified tubulin), P41351
T1 chain: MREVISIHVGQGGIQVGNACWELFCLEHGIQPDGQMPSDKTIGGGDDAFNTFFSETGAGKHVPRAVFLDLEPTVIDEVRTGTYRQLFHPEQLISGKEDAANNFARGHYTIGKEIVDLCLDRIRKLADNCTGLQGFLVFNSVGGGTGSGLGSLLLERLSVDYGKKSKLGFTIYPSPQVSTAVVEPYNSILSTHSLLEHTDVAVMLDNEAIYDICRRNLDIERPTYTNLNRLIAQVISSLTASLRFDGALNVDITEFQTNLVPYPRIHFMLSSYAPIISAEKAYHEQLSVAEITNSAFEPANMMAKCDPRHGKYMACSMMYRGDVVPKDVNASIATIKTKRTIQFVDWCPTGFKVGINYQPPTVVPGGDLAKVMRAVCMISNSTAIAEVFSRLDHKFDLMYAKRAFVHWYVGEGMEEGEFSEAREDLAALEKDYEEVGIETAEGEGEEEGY

T2: Tetrahymena K40R α-tubulin (axonemes from a K40R Tetrahymena mutant), P41351
T2 chain: T1 chain with K40R

B1: GFP-Mec17p (Tetrahymena MEC-17 tagged with GFP, crude enriched soluble fraction from transgenic Tetrahymena) (protein)
chain: MFKNQLLSLSLRIQKLRLCRQGNQLKVLQKSINQLLFKTQSIDQILQYLQQKKKTHQSILENQNQHIHSIGLVSQLTNQKINKQKNQKAMEFNFIINKLVQLDQQGLGVYIPRASRSKVSSQQEQQLGQVLNTMGERSAIAQGLKQVITNYDKVQGTDQRVYIVAEGRTCQGFLKVGQKNLFYRDMMGNIKEIKPLCVLDFYVHESCQRQGYGKLLFEYMIQCEQTSPEKLAYDRPSPKLIAFLKKHYNLVKYIAQNNNFVVFDQYFRSDASSQNKQNQNTRSYSQPYSDYSSQIPTNYPQQQQQQSNSKSYPYKQENNIDLMQHSSSRNNKEFLNAGRAILSKEEIYKKDNLSQQNIENTLNNINNSQYSTKSQQQQQYQKDYQLDKYENNWGADKNIKKPPFPGQDRQLDKIQQKIQQTERELDVVNQQIIKQRQNLSQDPLTQNHRAQNVYNTNQFGTSPWAQTGFNYYSTSSSNYGNHYTYYKK
B2: GST-MmMEC-17 (recombinant murine MEC-17 expressed in E. coli as a GST fusion) (protein)
chain: MEFPFDVDALFPERITVLDQHLRPPARRPGTTTPARVDLQQQIMTIVDELGKASAKAQHLPAPITSALRMQSNRHVIYILKDTSARPAGKGAIIGFLKVGYKKLFVLDDREAHNEVEPLCILDFYIHESVQRHGHGRELFQHMLQKERVEPHQLAIDRPSPKLLKFLNKHYNLETTVPQVNNFVIFEGFFAHQHRPPTSSLRATRHSRAAVADPIPAAPARKLPPKRAEGDIKPYSSSDREFLKVAVEPPWPLNRAPRRATPPAHPPPRSSSLGNSPDRGPLRPFVPEQELLRSLRLCPPHPTARLLLATDPGGSPAQRRRTRGTPWGLVAQSCHYSRHGGFNTSFLGTGNQERKQGEQEAEDRSASEDRVLLLDGSGEEPTQTGAPRAQAPPPQSWTVGGDIMNARVIRNLQERRSTRPW

Columns and labels:
[1] = molecular target: T1, Tetrahymena α-tubulin with …
[2] = molecular target: T2, Tetrahymena K40R α-tubulin (axonemes …)

Protein | in vitro tubulin acetylation (K40 αTAT) assay on MEC17-KO axonemes, western blot with 6-11 B-1 mAb [1] | in vitro acetylation of R40 (K40R) axonemes, western blot with pan acetyl-K antibodies [2] | in vitro acetylation of K40 axonemes, western blot with pan acetyl-K antibodies [1] | in vitro tubulin acetylation (αTAT) assay on MEC17-KO axonemes with acetyl-CoA, western blot with 6-11 B-1 mAb [1]
B1 | A crude GFP-Mec17p-enriched fraction (obtained from transgenic Tetrahymena) had K40 αTAT activity in vitro that was dependent on the presence of acetyl-CoA |  |  | 
B2 |  | failed to acetylate R40 axonemes | GST-MmMEC-17 modified K40 axonemes | GST-MmMEC-17, but not GST, mediated a robust αTAT activity in vitro
